B1: IGFBP-3 fragment comprising amino acids 98-264 (other, UniProt P17936 125-291, looked up)
chain: AYLLPAPPAPGNASESEEDRSAGSVESPSVSSTHRVSDPKFHPLHSKIIIIKKGHAKDSQRYKVDYESQSTDTQNFSSESKRETEYGPCRREMEDTLNHLKFLNVLSPRGVHIPNCDKKGFYKKKQCRPSKGRKRGFCWCVDKYGQPLPGYTTKGKEDVHCYSMQSK
notes: range 98-264; also called IGFBP-3 fragment 98-264
B2: P4.33 protein (IGFBP-3 receptor, IGFBP-3R), untagged / endogenous (receptor)
chain: SFLLTHRTGLRSPDIPQDWVSFLRSFGQLTLCPRNGTVTGKWRGSHVVGLLTTLNFGDGPDRNKTRTFQATVLGSQMGLKGSSAGQLVLITARVTTERTAGTCLYFSAVPGILPSSQPPISCSEEGAGNATLSPRMGEECVSVWSHEGLVLTKLLTSEELALCGSRLLVLGSFLLLFCGLLCCVTAMCFHPRRESHWSRTRL
B3: IGFBP-3 fragment comprising amino acids 88-148 (peptide, UniProt P17936 115-175, looked up)
chain: VNASAVSRLRAYLLPAPPAPGNASESEEDRSAGSVESPSVSSTHRVSDPKFHPLHSKIIII
notes: range 88-148; also called IGFBP-3 fragment 88-148

Legend:
[1] = target: B2; assay: cell-surface competition assay; competitor of full-length IGFBP-3
[2] = target: T1, Insulin-like Growth Factor Binding Protein-3 (IGFBP-3) (UniProt P17936 28-291, limits assumed, 125I label or OregonGreen label in some assays (sites not given)); assay: cell-surface binding with unlabelled IGFBP-3 as competitor, Hs578T cells transfected with un-tagged clone 4.33
T1 construct: mature; Also used for IGFBP-3 expressed by the cells themselves (Hs578T, PC-3, MCF-7:BP-3 lines) in the functional rows; also called unlabelled IGFBP-3
Procedure: Cell surface binding assay. Cells were seeded into 24-well plates and grown to 60-70% confluency, then transfected according to manufacturer instructions in serum-containing medium for 36 hours. Sf9 cells were seeded into 24-well plates and infected with virus harboring the 4-33^F cDNA for 48 hours. Cells were washed in cold PBS, then incubated for 3 hours at 12° C. in binding buffer (1× Hank's buffered salt solution, 1 mM CaCl₂, 1 mM MgCl₂, 0.5% BSA) containing [¹²⁵I]-IGFBP-3 (Diagnostic Systems Laboratories) at 50,000 cpm per well in triplicate, with or without unlabelled IGFBP-3 as indicated in the text below. The binding solution was then aspirated and the cells washed in cold binding buffer (without BSA), lysed in 0.25 N NaOH, and the radiolabelled IGFBP-3 present in each lysate was detected in a gamma counter.
Cells were then washed and exposed to [¹²⁵I]-labelled IGFBP-3 plus and minus increasing amounts of unlabelled IGFBP-3 as indicated for 3 hours at 12° C.

Binder | binding result [1] | binding result [2]
B1 | binds | –
B2 | – | binds
B3 | binds | –

Reference: patent US20040072285A1 (OREGON HEALTH AND SCIENCE UNIVERSITY, published 2004)
